The nature of the data set: soluble fraction after stress (log2 fold change); higher = more stays soluble; pooled small domains, quantitative proteomics. As to conditions: stress: 50 degC. The gist of the method: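 The stress applied to every library was 50°C. These custom libraries of small protein domains were pooled and measured at high throughput with quantitative proteomics as the read-out. Aggregation propensity is expressed as the base-two logarithm of the fold change in how much of each protein remains soluble. The higher the value, the more of that protein stays in solution.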
On to “HMIHEQSLHKIRNFIGSLPESLRTAFTLREQDGLSYEEIGKITNTPIGTVRSRIYRARESILDHINQE”, for which the “soluble fraction (log2)” value was -0.874.

“HMSMISLPNFVGKDIETVKAWAKENGITLIINKVEDSAKKDTVISQNPTNSDYSKILKGSAFTVNIAKE”: the “soluble fraction (log2)” value is 0.0206.

Regarding “HMKEVKPSDFFLSKLDEDHNLIEKFNALSSFKQKEFIEYIDSAKQEKTKHDRFEKIKPILLSNIGLNDKYR”, the “soluble fraction (log2)” value came to 0.075.

For the sequence “HMLEPGQKVKSVVVDISGDLIYIDLGGKTEGVVELKEFYDEAGEYHVKPGDEIEVFFVSVQNGLKRFTT”, the “soluble fraction (log2)” value was -0.0167.

Regarding “HMEVAPEKVLEALNELPEIYKIVLNLYAVENMSHKEIAKKLGISLGSSKSRLSRGRVMLNTLLNR”, the “soluble fraction (log2)” value is -1.42.

“HMEKIKNLTVTEFNLIANKNPSGSYDRITREALLHIIHKLESSYEAHTDLERKLFYKFRKAKFNAL”: the “soluble fraction (log2)” value was -1.91.

For “HMGGYVTGTIDLTKFGYAFVITEESEDDVFVAARNLNTALHGDQVKVLLYARHKGKRPEGEVVEIISRSRA”, the “soluble fraction (log2)” value is -1.11.

For the sequence “HMTPQEQWNNAYLLAKDYYDANGNLDIDEKYKTKDGFELGSWLTTQRNVYKRGKLSPEKTKKLEEIGISF”, the “soluble fraction (log2)” value was 0.128.

Turning to “HMQKNFYQILGVDSKASPATINAAYERAKSRVIQSGLEDPDTMALLRDAWETLADPGDRAAYDESLAT”, the “soluble fraction (log2)” value was 0.0751.

As for “HMPREVKLPPDLLDALEASPEAKAFFLQLSYTHQKEYAQWIEEAKQEATRQRRLEKTVQMLLEGRRT”, the “soluble fraction (log2)” value is -0.0798.

“HMNKIDVVEVDMSKPYEDMTVTELQNVILGKLASNGPVTDQMKKDVAENIYHDSLVNWAKSF”: the “soluble fraction (log2)” value was 0.505.

Regarding “HMLPDDDMLLNILTKLLIDKQFVINSHEIFDFIIKRANRSYEEMFILVNKLDQLSLEKKRQLTIPLIKEI”, the “soluble fraction (log2)” value was -0.652.

Consider “HMSDIHARIAAALAALTSPEKIHDLVVDDDGKVSFTFHLTREDPATLVRDARKAVQAVDGVRDVKVNVVDP”, for which the “soluble fraction (log2)” value turned out to be 0.172.

With “HMGFAANLSRLMEYHNISMYRLAKEVGVHQTTVKNWLEEESEPKIAALEKIVGLLGVSYDELLG”, the “soluble fraction (log2)” value is -4.56.

Regarding “HMSTLTGTQRAAVVLMQMSPPNAARVMAQFTDAEAEEIAAEIVRLRKVDPEVAEQIMKDFHEAALSS”, the “soluble fraction (log2)” value was -0.252.

For the sequence “HMTALSIGTVVRFTGDRHYISSTGDTGYPASPGLAKITSINPGSKHPYHLIHIDNTSNVYGWVNKQDIIT”, the “soluble fraction (log2)” value worked out at 0.16.

Take “HMDTPVYYYVNGNGVRMRKDASLESDILILLYKGTKVEYVDVKGEWIKVKYNNEIGYIRNDLLSAEMPD”: the “soluble fraction (log2)” value is -0.0872.

Consider “HMKELLTKQQREEILETVKTKTPKDFGYTAEHWTTGFLGKWIEEHYEVEYKSKTSLYLVFKKASFTYHKPG”, for which the “soluble fraction (log2)” value is 0.228.

As for “HMSEITMMQMEIPEGHNWENRLVKDVSMPTGSLAVMIKRHGETLIPGGDTRILAGDTIVLSVPAYESG”, the “soluble fraction (log2)” value was -0.0716.

As for “HMTMMTFGEKLQNARKGAGLSQEQLAEKLSVSRSAVAKWENDNGMPDIDNLKAIAQLLDVSIDYLLEN”, the “soluble fraction (log2)” value stood at 0.133.

“HMVEVPYSEFLKELDAGNVKDVYVSNGESQIQFTKKDQKQWNLSYKTGPIPGDDLVKRLQNADVENFT”: the “soluble fraction (log2)” value came to 0.0879.

For the sequence “HMSYFIFDGVLNLGKQYELKGEESSHITKSRRLRPGDSFLIQDQEGQRFEAILKSFDRNSLIFTPHKPTA”, the “soluble fraction (log2)” value is -0.0922.

Turning to “HMGATYSQFLDQVDGGNVQKVTFSGDMRSGTNQISYTTRSGQSATITAPMDRDLINILRAKNVEIVQEEP”, the “soluble fraction (log2)” value was 0.026.

With “HMLTRRQSEVLDFIRQFAESESMPPTLHEIAKGMGFSSDNAARDHVRALARKGAIDLVGGTSRGIRLR”, the “soluble fraction (log2)” value was -0.354.

Take “HMMTLEESYKLLQVSHNASDIEITKAFKKLALLYHPDKNPSNIDWANKAMASINVAYNTIITHRFKEK”: the “soluble fraction (log2)” value is -0.628.

“HMYYNDEELDGYRGTPSDAYSDNAVEEFREVLYTLREDEVSGWVRSLQLRGIFLPDAIKDETFLI”: the “soluble fraction (log2)” value was -1.59.

“HMIFNENLKSAREKKGLSQKEVAEAIGVAKSTYSLYESGNREPNVQTIKRIADVLNVSADVLLGL”: the “soluble fraction (log2)” value amounted to 0.00744.

Regarding “HMAATHYEGIKQDGETDDAVIERVLTGLSVTANKDDIFIVKTLIAGTKYSYTAYVYNGNAWAAM”, the “soluble fraction (log2)” value turned out to be 0.0325.

As to “HMQQLTDRELEVLRLLAAGLSNNKIGEKLYISATTAKFHVSNIMRKLEVSRRAEAVYAASKRGL”, the “soluble fraction (log2)” value was -2.

In the case of “HMVPVSIYAYNKIKTAILNNELMPGEKLVEASLAETLNMSRTPIREALRQLEQEGFVTYYPQKGSIVSH”, the “soluble fraction (log2)” value was -0.657.

Take “HMGYPYDTVTTAKVNLRAKRSTSSDILKKIPEGATVTVKGVTGTFASVDYNGTSGYVKVDYLV”: the “soluble fraction (log2)” value is 0.069.

Turning to “HMQDVVERIKKYKQLFSITSEELSKRSGIPLGTLNKILSSSTKSIKTETLAAIAKGLDVSVSDLVGREK”, the “soluble fraction (log2)” value came out at 0.0602.

Turning to “HMKTKKYKGVYKDSKGKIYFQIELGVDPITGKRIQKKGRKNQQGLPFNSFKEAYEEILRLKHEFVNSTIN”, the “soluble fraction (log2)” value is -2.69.

As to “HMGVAASEVHREKKESSLQWRQSYNVATDQRRQGKTYKEITEFLNGAELKNSKGGTWSISGVRKMLM”, the “soluble fraction (log2)” value worked out at 0.271.

As for “HMSKYERVYTGSEINVNHLKSQLEDAGISSVVRNDHESAIRAGFGSDYDRGVLLFVEKDNLLRAKHIIEKT”, the “soluble fraction (log2)” value came to 0.0318.

With “HMNSVTLEHIVYDFRVFNMLKGSGINDIDELIKAAEDGRLFKIIGSNLTYKRIKKSAAEFGVILPDKPG”, the “soluble fraction (log2)” value is -0.351.

For the sequence “HMRDFLMDSTKNKLSKDQVQLSRIFLWFGNDFGSKAERLEFISRYSGMDFNQPKIDYLTYDWSLNQ”, the “soluble fraction (log2)” value worked out at 0.278.

On to “HMRVVPEILERAVAVFEALGVDRLPSSTLADRLGYDSPEALADVLRPLGVRPKKYRDGKSTARGYLAADLG”, for which the “soluble fraction (log2)” value was -0.473.

In the case of “HMGSWDDFFNAIRLDNPNTLQALLQRGFDPNTVDQQGTPALMRALQEQSYRAAEVLADHPQI”, the “soluble fraction (log2)” value is -0.459.

For the sequence “HMPLIPIAIELARHALPSLIGAIAGDKSEKVAKEVVDAALKTTGKTTPDEALHALQADPQLAHEYRLSLL”, the “soluble fraction (log2)” value was found to be 0.287.

Turning to “HMERQAEAWTNRASALISLGRDEEALEAADRAIELDPRLSKAWIDRSTALSNLGRNDEANEAIQMAMFL”, the “soluble fraction (log2)” value was 0.108.

“HMNWQLITDPKELRELVQKTIADNEAGTSRLREGDMGPLEFLTGIIMKKTRGLADPTMVKALLKEELNI”: the “soluble fraction (log2)” value was 0.132.

“HMTTIRQQAEVPLSAAGRRFDQALAEMFPAYSRSRLSGWIKAGAATLDGAPAAPRQLLRGGERVELDVELE”: the “soluble fraction (log2)” value was -0.0501.

In the case of “HMFDEDKLIISIGSKVRIIREPYFGTIGKVVELPPELVKMDTEAMLRVAIIKLDDGEKVTIPRANLEVILS”, the “soluble fraction (log2)” value was -1.22.

Turning to “HMLGAGFDSDLTARENIFLNGALLGHSRAVMRGYYDDIVNFAELHDFMDVPVKNFSSGMTSRLAFSIATIG”, the “soluble fraction (log2)” value was 0.00802.

Turning to “HMVQAQGARIREARVQRGLSQAQLGEPRYSGSYISHIENGRRSPGTDVLAFIAARLGLEPGALDS”, the “soluble fraction (log2)” value is -0.504.

For “HMRSKTDLVYEEIKKLILRGELSSDTPISENHLARRFEISRTPIREALKRLHIEGFVRIIPNHGVFVR”, the “soluble fraction (log2)” value is -0.343.

For “HMNQSEMIGSRLKEERLQQKLTLKQLSEKVGLSIGYLSQVERGYGTLSLSALKKLSSALGLEMSTFFD”, the “soluble fraction (log2)” value is -0.992.

For the sequence “HMDSVTLGISFNGKTRFTLDFPADAAAADIEKAALEAEQSQRYLEGMTVAKVIVVPGRIVNIVLK”, the “soluble fraction (log2)” value is -0.501.

For the sequence “HMQSYSYYDFQKALQNKTVESVIIEPDKTVPTGTLQIQLKGDTKEELNVSDVTEVEELLQSYDVDYKLRSV”, the “soluble fraction (log2)” value came to 0.131.

For “HMSTVELPVQINGKVRGRITVPANAGQEDVKQAALADSKVQRYIEGASIRKVIVVPRKLVNIVV”, the “soluble fraction (log2)” value worked out at 0.13.

For “HMAPTPAGNLRSLKSEIVNYTRQSSTAYVYTFKDLSSGELYTARASRYYAAAGDTAYISTAAGAITDM”, the “soluble fraction (log2)” value worked out at 0.0171.

With “HMDTMQQESMDTKSILATALMELTSRKNFAKITIADITHVSGFNRQTFYYHFRDKYELLSWIY”, the “soluble fraction (log2)” value came out at 0.0516.

On to “HMSTDIPFNIFSQKWNADEIDSIVVENNKIEGKTKDNKKFSTYAPDELLTSLMENHKNPNVIVEFRAP”, for which the “soluble fraction (log2)” value was found to be 0.277.

With “HMALSLPDDMTIVRKDGSSLEVRLKSRTVTEIHFERISDSETFQFSIDQLDETTRELVEQYPVM”, the “soluble fraction (log2)” value is -0.0919.

On to “HMSLPALSAEEQKIVDALHGTPKGVDDIIAETGISSGALLRSLTMLELKKVIVRLPGNRIAPK”, for which the “soluble fraction (log2)” value is -0.128.

Take “HMRLDPENFYIRAVTYYRNGDWQRALSQLDEAIKLGTAIEYPALQARIYLEQGMRDEFIAASEK”: the “soluble fraction (log2)” value is -1.71.

For the sequence “HMVKLSATVKELLDFVIAKKTVTSSNVSKHFDISAQNASGRLKKLHATGLVLGQKEVAESGGLEFVYRS”, the “soluble fraction (log2)” value was -0.183.

As for “HMKYFDRDLINYIQKTLAGKKIDFHEKIVPLIIELAGSDIRRVDEIIDMAEYSGKGMHVSEEMIRELAGDV”, the “soluble fraction (log2)” value is -0.815.

Consider “HMLVGKSVIMKTNESSSGMIAGKVNYWENIDGKIYLGINGKLYDIADVDTVLDNDYYDKLVN”, for which the “soluble fraction (log2)” value was -0.347.

“HMWSGEPFLDELRHADTLLETDPEAALAEYRALADKGSAAAMMALGNAYASGSHVARDEGEAEHWYRRAA”: the “soluble fraction (log2)” value was determined as 0.0547.

Regarding “HMWNTADDIKEAIWKLIQSEDPKKPYSDLKISQLLLEKEMKISRRTVAKYRKEMGILGTYSRK”, the “soluble fraction (log2)” value was -0.347.

Turning to “HMPGIDDAAVEHAERVLAQHIGPMARLLVRRTVPRAANLFDLHRRLGALIPESEPRTAFLSAVVT”, the “soluble fraction (log2)” value is 0.0708.

As to “HMSMVGNIEKILVTGESKKSSELLAGRTENNRVVNFTGEKVLIGSMVNVRIEEVFPNSLGGSYLPS”, the “soluble fraction (log2)” value was -0.16.

With “HMKRQDFEFLVNLLRQNAGWDFDEEQYFVVDKKISNFIREKGYASVEDLIDELKVGAKPLISQVVESLAL”, the “soluble fraction (log2)” value was -0.622.

Turning to “HMNLESNQYVIDISDSQVINKDEFETILNQNKTKDIVIKSNNNVTFTFEKGSMIGAEGKDNYDFSSQVNY”, the “soluble fraction (log2)” value is -0.0368.

With “HMDQPVIDVREFGARGDGKQDDAPAIQAAVRLAEQLGGGRVVVPATREFYLLGSTIRIRGHHVTLTGPGAR”, the “soluble fraction (log2)” value stood at 0.0155.

For the sequence “HMNVDSIPGKSGIVTQGIDNLKAMGRVTVNGMEWTARSKDGSLIEEGKVVRVYGVEGVKLIVEED”, the “soluble fraction (log2)” value was -0.0306.

For the origin of these results see the domain aggregation screens of Martell et al. (2025).
